These results are taken from patent publication US20220089647A1 (FUJIFILM, published 2022).

Starred links: 1 amine or outer side, 2 acyl side, 3 side chain; linkers in the order of their positions; H or OH if unused. Positions of bridges follow the written chain, without caps; N, C: chain ends. Non-standard residues stand in square brackets, D forms with d. Primed or numbered codes have the meaning given here. No end group written: not given here. Dab(acetyl)″ = 2-amino-4-(acetylamino)butanoic acid, acetyl CH3 carbon bonded to the S of Hcy (S-CH2-C(=O)-NH-), O=C(C[*:3])NCC[C@H](N[*:1])C(=O)[*:2]; Dab(acetyl) = 2-amino-4-acetylamino-butanoic acid residue (N-γ-acetyl-diaminobutyric acid), CC(=O)NCC[C@H](N[*:1])C(=O)[*:2]; Dab(acetyl)(3) = 2-amino-4-(acetylamino)butanoic acid (Dab with N-γ-acetyl), CC(=O)NCC[C@H](N[*:1])C(=O)[*:2]; COCH2 = acetyl group that carries the bridge; hCys = N[C@@H](CCS)C(=O)O; Dab = NCC[C@H](N)C(=O)O Where only a bound is given, the exact number is not on record here.

This test addresses T1, human integrin αvβ5 (human, UniProt P06756 31-992; P18084 24-719, limits assumed).
T1 construct: Heterodimer flowed as analyte at 30, 100, 300 and 1,000 nM in HEPES buffer with 5 mM MgCl2
In words: SPR, Biacore 3000, peptide immobilised; A = KD 50 nM or less. The protocol: However, only for the cyclic peptides 125, 126, and 127, in which the number of lysine residues having an amino group as the immobilizing functional group was zero, the amount of the sample solution to be supplied to the sensor chip was set to 500 μL instead of 20 μL. Further, 70 μL of the mixed aqueous solution of 0.2 M EDC and 0.04 M NHS was added to another flow channel of the same sensor chip without immobilizing the sample, and then blocking treatment and washing treatment were carried out. Hereinafter, the obtained immobilization-treated sensor chip is referred to as an “immobilization-treated sensor chip A”.
After adding human integrin αvβ5 for 10 minutes at 25° C., which was diluted to 30 nM using a HEPES buffer solution to which magnesium chloride was added to 5 mM, in each flow channel of the immobilization-treated sensor chip A prepared in (1) above, the same HEPES buffer solution (containing 5 mM magnesium chloride) was allowed to flow as a running buffer for 30 minutes, and measurement was carried out with Biacore 3000. Then, a regeneration treatment of removing human integrin αvβ5 was carried out by allowing a 0.5 M EDTA aqueous solution to flow through each flow channel for 10 minutes. Further, the above-described measurement process consisting of adding integrin for 10 minutes, allowing a running buffer to flow for 30 minutes, carrying out measurement with Biacore 3000, and carrying out regeneration treatment with 0.5 M EDTA aqueous solution was carried out in the same manner for 100 nM human integrin αvβ5, 300 nM human integrin αvβ5, and 1,000 nM human integrin αvβ5. Dissociation constant between the cyclic peptide and human integrin αvβ5 was calculated from the difference between the value measured by Biacore 3000 in the flow channel immobilized with the cyclic peptide and the value measured by Biacore 3000 in the flow channel unimmobilized with the cyclic peptide, in a case where each concentration of human integrin αvβ5 was allowed to flow, and the integrin binding property was evaluated according to the following evaluation standards. It is preferable that the evaluation result satisfies the evaluation standard A, B, or C.
In general terms: In SPR one partner is held on a chip, and binding of the other changes the refractive index at the surface.

T1 sequence (P06756 31-992 limits assumed, chain 1 of 2): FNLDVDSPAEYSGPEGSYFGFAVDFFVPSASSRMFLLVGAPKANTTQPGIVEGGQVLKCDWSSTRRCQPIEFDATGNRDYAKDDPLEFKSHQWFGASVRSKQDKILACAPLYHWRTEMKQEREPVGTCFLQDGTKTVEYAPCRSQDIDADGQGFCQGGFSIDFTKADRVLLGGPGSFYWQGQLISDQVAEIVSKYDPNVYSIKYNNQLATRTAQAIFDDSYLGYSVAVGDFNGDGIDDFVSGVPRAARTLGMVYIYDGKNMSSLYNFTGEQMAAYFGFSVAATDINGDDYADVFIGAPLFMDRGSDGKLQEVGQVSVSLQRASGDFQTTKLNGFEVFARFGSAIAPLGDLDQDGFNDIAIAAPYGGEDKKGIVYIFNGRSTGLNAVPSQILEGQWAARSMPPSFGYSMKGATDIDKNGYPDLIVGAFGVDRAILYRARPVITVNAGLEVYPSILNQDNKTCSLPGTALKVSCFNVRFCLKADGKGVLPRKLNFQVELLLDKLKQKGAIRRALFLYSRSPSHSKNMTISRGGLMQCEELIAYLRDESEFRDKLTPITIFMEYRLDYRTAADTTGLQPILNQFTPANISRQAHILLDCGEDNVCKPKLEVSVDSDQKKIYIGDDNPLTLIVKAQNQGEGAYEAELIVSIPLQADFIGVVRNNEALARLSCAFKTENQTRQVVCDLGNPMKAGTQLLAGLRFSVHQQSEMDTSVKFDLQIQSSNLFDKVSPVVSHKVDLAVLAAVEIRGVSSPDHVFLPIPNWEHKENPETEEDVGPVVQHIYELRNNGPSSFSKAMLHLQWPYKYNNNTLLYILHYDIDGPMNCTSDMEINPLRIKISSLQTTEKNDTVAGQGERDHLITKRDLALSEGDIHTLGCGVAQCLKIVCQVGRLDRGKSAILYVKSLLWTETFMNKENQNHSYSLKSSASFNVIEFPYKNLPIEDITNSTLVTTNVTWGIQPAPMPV
T1 sequence (P18084 24-719 limits assumed, chain 2 of 2): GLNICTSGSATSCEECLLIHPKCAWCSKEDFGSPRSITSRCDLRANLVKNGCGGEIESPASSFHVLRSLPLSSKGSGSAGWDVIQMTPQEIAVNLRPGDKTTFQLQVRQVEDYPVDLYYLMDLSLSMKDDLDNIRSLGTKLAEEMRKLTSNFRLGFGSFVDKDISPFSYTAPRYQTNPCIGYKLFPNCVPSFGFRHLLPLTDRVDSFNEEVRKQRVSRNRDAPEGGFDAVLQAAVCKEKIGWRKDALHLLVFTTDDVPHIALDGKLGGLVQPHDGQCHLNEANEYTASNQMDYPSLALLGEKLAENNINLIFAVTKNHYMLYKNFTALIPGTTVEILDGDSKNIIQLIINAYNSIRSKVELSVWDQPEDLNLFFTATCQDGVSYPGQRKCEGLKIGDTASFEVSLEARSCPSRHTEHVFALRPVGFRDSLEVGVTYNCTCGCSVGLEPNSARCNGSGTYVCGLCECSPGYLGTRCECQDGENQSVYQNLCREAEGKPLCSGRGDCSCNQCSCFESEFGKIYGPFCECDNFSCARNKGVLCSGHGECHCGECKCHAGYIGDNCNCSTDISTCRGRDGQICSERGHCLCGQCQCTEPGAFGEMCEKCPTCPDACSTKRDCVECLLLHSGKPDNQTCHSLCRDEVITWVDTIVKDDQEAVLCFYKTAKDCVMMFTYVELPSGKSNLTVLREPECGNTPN

B1: Cyclic peptide 54 (peptide)
peptide: KKKG[hCys]IPRGDTFR[Dab(acetyl)″]A
modifications: thioether 5-14
Turning to B1, the “dissociation constant (KD)” value is not above 50 nM.

B2: Cyclic peptide 96 (peptide)
peptide: KKKA[hCys]VPRGDSFA[Dab(acetyl)]A
modifications: thioether 5-14
On to B2, for which the dissociation constant is not above 50 nM.

B3: Cyclic peptide 78 (peptide)
peptide: KKKAXIPRGDVFRXA
modifications: not fully specified; KKKA-(Hcy)-IPRGDVFR(Dab(acetyl))A; thioether bond Hcy-Dab(acetyl)
B3 came in with a dissociation constant not above 50 nM.

B4: Cyclic peptide 93 (peptide)
peptide: KKKA[hCys]IPRGDSFA[Dab(acetyl)]G
modifications: thioether 5-14
As for B4, the dissociation constant was not above 50 nM.

B5: Cyclic peptide 92 (peptide)
peptide: KKKA[hCys]IPRGDSFA[Dab(acetyl)]A
modifications: thioether 5-14
B5: the dissociation constant is not above 50 nM.

B6: Cyclic peptide 122 (peptide)
peptide: KKKAXVPRGDTFAXA
modifications: not fully specified; KKKA(Dab(acetyl))VPRGDTFA-(Hcy)-A; thioether bond Dab(acetyl)-Hcy
B6 came in with a dissociation constant not above 50 nM.

B7: Cyclic peptide 98 (peptide)
peptide: KKKG[hCys]VPRGDSFA[Dab(acetyl)]A
modifications: thioether 5-14
B7: the dissociation constant was not above 50 nM.

B8: Cyclic peptide 56 (peptide)
peptide: KKKA[hCys]IPRGDTFR[Dab(acetyl)″]A
modifications: thioether 5-14
As to B8, the “dissociation constant (KD)” value was not above 50 nM.

B9: Cyclic peptide 94 (peptide)
peptide: KKKG[hCys]IPRGDSFA[Dab(acetyl)]A
modifications: thioether 5-14
On to B9, for which the dissociation constant is not above 50 nM.

B10: Cyclic peptide 77 (peptide)
peptide: KKKAXISRGDTFRXA
modifications: not fully specified; KKKA-(Hcy)-ISRGDTFR(Dab(acetyl))A; thioether bond Hcy-Dab(acetyl)
With B10, the dissociation constant is not above 50 nM.

B11: Cyclic peptide 83 (peptide)
peptide: KKKAXIPRGDTFSXA
modifications: not fully specified; KKKA-(Hcy)-IPRGDTFS(Dab(acetyl))A; thioether bond Hcy-Dab(acetyl)
In turn, B11 came in with a dissociation constant not above 50 nM.

B12: Cyclic peptide 86 (peptide)
peptide: KKKG[hCys]IPRGDTFA[Dab(acetyl)]A
modifications: thioether 5-14
Molecule B12 showed a dissociation constant not above 50 nM.

B13: Cyclic peptide 55 (peptide)
peptide: KKKG[hCys]IPRGDTFR[Dab(acetyl)″]G
modifications: thioether 5-14
B13: the “dissociation constant (KD)” value was not above 50 nM.

B14: Cyclic peptide 1 (peptide)
peptide: KKKG[hCys]IPRGDNFR[Dab(acetyl)(3)]A
modifications: thioether 5-14
For B14, the “dissociation constant (KD)” value was not above 50 nM.

B15: Cyclic peptide 90 (peptide)
peptide: KKKA[hCys]IPRGDAFA[Dab(acetyl)]A
modifications: thioether 5-14
Regarding B15, the dissociation constant was not above 50 nM.

B16: Cyclic peptide 27 (peptide)
peptide: KKKG[hCys]LPRGDNFR[Dab](COCH2)A
modifications: thioether 5-14
As to B16, the “dissociation constant (KD)” value was not above 50 nM.

B17: Cyclic peptide 74 (peptide)
peptide: KKKAXVPRGDTFRXA
modifications: not fully specified; KKKA-(Hcy)-VPRGDTFR(Dab(acetyl))A; thioether bond Hcy-Dab(acetyl)
Molecule B17 showed a dissociation constant not above 50 nM.

B18: Cyclic peptide 84 (peptide)
peptide: KKKGXIPRGDTFAXG
modifications: not fully specified; KKKG-(Hcy)-IPRGDTFA(Dab(acetyl))G; thioether bond Hcy-Dab(acetyl)
Molecule B18 returned a dissociation constant not above 50 nM.

B19: Cyclic peptide 89 (peptide)
peptide: KKKA[hCys]VTRGDTFR[Dab(acetyl)]A
modifications: thioether 5-14
As for B19, the dissociation constant is not above 50 nM.

B20: Cyclic peptide 136 (peptide)
peptide: KKKAXVPRGDTFAXA
modifications: not fully specified; KKKA(Dab(acetyl))VPRGDTFA-(Pen)-A; thioether bond Dab(acetyl)-Pen
B20 registered a dissociation constant not above 50 nM.

B21: Cyclic peptide 87 (peptide)
peptide: KKKA[hCys]IPRGDTFA[Dab(acetyl)]A
modifications: thioether 5-14
With B21, the dissociation constant is not above 50 nM.

B22: Cyclic peptide 108 (peptide)
peptide: KKKA[hCys]VPRGDTFA[Dab(acetyl)″]A
modifications: thioether 5-14
In turn, B22 yielded a dissociation constant not above 50 nM.

B23: Cyclic peptide 107 (peptide)
peptide: KKKA[hCys]VPRGDTFA[Dab(acetyl)″]G
modifications: thioether 5-14
Molecule B23 displayed a dissociation constant not above 50 nM.

B24: Cyclic peptide 99 (peptide)
peptide: KKKG[hCys]VPRGDSFA[Dab(acetyl)]G
modifications: thioether 5-14
B24: the dissociation constant is not above 50 nM.

B25: Cyclic peptide 91 (peptide)
peptide: KKKA[hCys]VPRGDAFA[Dab(acetyl)]A
modifications: thioether 5-14
Molecule B25 showed a dissociation constant not above 50 nM.

B26: Cyclic peptide 95 (peptide)
peptide: KKKG[hCys]IPRGDSFA[Dab(acetyl)]G
modifications: thioether 5-14
Take B26: the dissociation constant is not above 50 nM.

B27: Cyclic peptide 75 (peptide)
peptide: KKKAXTPRGDTFRXA
modifications: not fully specified; KKKA-(Hcy)-TPRGDTFR(Dab(acetyl))A; thioether bond Hcy-Dab(acetyl)
Molecule B27 returned a dissociation constant not above 50 nM.

B28: Cyclic peptide 106 (peptide)
peptide: KKKG[hCys]VPRGDTFA[Dab(acetyl)″]A
modifications: thioether 5-14
B28 registered a dissociation constant not above 50 nM.

B29: Cyclic peptide 97 (peptide)
peptide: KKKA[hCys]VPRGDSFA[Dab(acetyl)]G
modifications: thioether 5-14
B29 gave a dissociation constant not above 50 nM.

B30: Cyclic peptide 88 (peptide)
peptide: KKKA[hCys]IPRGDTFG[Dab(acetyl)]A
modifications: thioether 5-14
Regarding B30, the dissociation constant was not above 50 nM.

B31: Cyclic peptide 105 (peptide)
peptide: KKKG[hCys]VPRGDTFA[Dab(acetyl)″]G
modifications: thioether 5-14
Turning to B31, the dissociation constant is not above 50 nM.

B32: Cyclic peptide 85 (peptide)
peptide: KKKAXIPRGDTFAXG
modifications: not fully specified; KKKA-(Hcy)-IPRGDTFA(Dab(acetyl))G; thioether bond Hcy-Dab(acetyl)
B32 showed a dissociation constant not above 50 nM.

B33: Cyclic peptide 2 (peptide)
peptide: KKKA[hCys]IPRGDNFR[Dab](COCH2)A
modifications: thioether 5-14
Consider B33, for which the “dissociation constant (KD)” value is not above 50 nM.

B34: Cyclic peptide 71 (peptide)
peptide: KKKGXLPRGDTFRXA
modifications: not fully specified; KKKG-(Hcy)-LPRGDTFR(Dab(acetyl))A; thioether bond Hcy-Dab(acetyl)
B34 came in with a dissociation constant not above 50 nM.

B35: Cyclic peptide 70 (peptide)
peptide: KKKGXVPRGDTFRXA
modifications: not fully specified; KKKG-(Hcy)-VPRGDTFR(Dab(acetyl))A; thioether bond Hcy-Dab(acetyl)
Take B35: the dissociation constant is not above 50 nM.

B36: Cyclic peptide 69 (peptide)
peptide: KKKGXEPRGDTFRXA
modifications: not fully specified; KKKG-(Hcy)-EPRGDTFR(Dab(acetyl))A; thioether bond Hcy-Dab(acetyl)
Molecule B36 registered a dissociation constant not above 50 nM.

B37: Cyclic peptide 100 (peptide)
peptide: A[hCys]IPRGDSFA[Dab(acetyl)″]AKKK
modifications: thioether 2-11
Regarding B37, the dissociation constant is not above 50 nM.

B38: Cyclic peptide 104 (peptide)
peptide: KKK[hCys]VPRGDTFA[Dab(acetyl)″]
modifications: thioether 4-13
Molecule B38 registered a dissociation constant not above 50 nM.

B39: Cyclic peptide 60 (peptide)
peptide: KKK[hCys]IPRGDTF[Dab(acetyl)″]A
modifications: thioether 4-12
On to B39, for which the “dissociation constant (KD)” value is not above 50 nM.
